The record followed here is US20250066456A1 (NOVAVAX, published 2025).

Like-named read-outs stand apart in the source and are kept apart here.

Test [1] addresses BV2457 (rS India).
Test [2] addresses T1, Delta Plus CoV S glycoprotein (recombinant) (Severe acute respiratory syndrome …, UniProt P0DTC2 14-1273).
Test [3] deals with BV2541 (recombinant CoV S glycoprotein, BA.4) (SARS-CoV-2, UniProt P0DTC2 14-1273). In words: ELISA on coated rS.
In test [4] the target is BV2562 (recombinant CoV S glycoprotein, BA.4.6) (SARS-CoV-2, UniProt P0DTC2 14-1273). Kind of test: ELISA on coated rS. In general terms: An ELISA detects its analyte on a solid surface through an enzyme-linked reagent.
Test [5] concerns the target T2, BV2373 (recombinant CoV S glycoprotein, Prototype) (SARS-CoV-2, UniProt P0DTC2 14-1273). In words: hACE2 receptor inhibition ELISA on coated rS; competitor hACE2-His.
The target of test [6] is T3, BV2425 (recombinant CoV S glycoprotein, Alpha) (SARS-CoV-2, UniProt P0DTC2 14-1273). The test is described as above.
Test [7] has as its target T4, BV2438 (recombinant CoV S glycoprotein, Beta) (SARS-CoV-2, UniProt P0DTC2 14-1273). The test is described as above.
Test [8] concerns the target T5, BV2443 (recombinant CoV S glycoprotein, Gamma) (SARS-CoV-2, UniProt P0DTC2 14-1273). Described as above.
Test [9] deals with T6, BV2465 (recombinant CoV S glycoprotein, Delta) (SARS-CoV-2, UniProt P0DTC2 14-1273). The test is described as above.
For test [10], the target named is T7, BV2509 (recombinant CoV S glycoprotein, BA.1) (SARS-CoV-2, UniProt P0DTC2 14-1273). The description is as above.
Test [11] has as its target T5, BV2443 (recombinant CoV S glycoprotein, …). In words: ELISA, plate coated with rS, serial dilution of the mAb, anti-mouse HRP, A450.
Test [12] concerns the target T2, BV2373 (recombinant CoV S glycoprotein, …). In words: ELISA on coated rS.
Test [13] addresses T3, BV2425 (recombinant CoV S glycoprotein, …). In words: ELISA on coated rS.
Test [14] has as its target T4, BV2438 (recombinant CoV S glycoprotein, …). In words: ELISA on coated rS.
In test [15] the target is T5, BV2443 (recombinant CoV S glycoprotein, …). Kind of test: ELISA on coated rS.
The target in test [16] is T6, BV2465 (recombinant CoV S glycoprotein, …). In words: ELISA on coated rS.
Test [17] deals with T7, BV2509 (recombinant CoV S glycoprotein, …). Kind of test: ELISA on coated rS.
Test [18] deals with T1, Delta Plus CoV S glycoprotein …. In words: ELISA on coated rS.
The target in test [19] is T7, BV2509 (recombinant CoV S glycoprotein, …). In words: ELISA on coated rS. The source holds these as a separate data set.
The target of test [20] is BV2561 (recombinant CoV S glycoprotein, BA.2.75) (SARS-CoV-2, UniProt P0DTC2 14-1273). In words: ELISA on coated rS.
The target in test [21] is BV2589 (recombinant CoV S glycoprotein, BQ.1.1) (SARS-CoV-2, UniProt P0DTC2 14-1273). In words: BLI, antibody on anti-mouse Fc biosensor, rS analyte. In general terms: BLI is a label-free optical method that tracks binding on a fibre tip over time.
In test [22] the target is T1, Delta Plus CoV S glycoprotein …. The source holds these as a separate data set.
Test [23] deals with T3, BV2425 (recombinant CoV S glycoprotein, …). In words: ELISA, plate coated with rS, serial dilution of the mAb, anti-mouse HRP, A450.
For test [24], the target named is T4, BV2438 (recombinant CoV S glycoprotein, …). Described as above.
Test [25] concerns the target T5, BV2443 (recombinant CoV S glycoprotein, …). The test is described as above. The source holds these as a separate data set.
For test [26], the target named is T6, BV2465 (recombinant CoV S glycoprotein, …). The description is as above.
Test [27] deals with T7, BV2509 (recombinant CoV S glycoprotein, …). Described as above.

B1: 425.6 (antibody, V domains shown)
VH: VQLKQSGPSLVQPSQSLSITCTVSGFSLTSYGIHWVRQSPGKGLEWLGVIWRGGSTDYNAAFMSRLTITKDNSKSQVFFKMNSLQADDTAIYYCATHTEGDDVDYWGQGTSVTVSS
VL: QIVLTQSPAIMSVSPGEKVTMTCSASSTMSFMYWYQQKPGSSPRLLIYDTSNLASGVPVRFSGSGSGTSYSLTISRVEAEDAATYYCQQWNTYPLTFGAGTKLELKR
For the molecule B1, in test [1], the Kd is < 1 pM. In test [1], this molecule showed a koff of 1.88e-07 s⁻¹. The association rate constant (kon) in test [1] came to 117000 M⁻¹ s⁻¹. Also, the EC50 was found to be 0.0098 µg/mL in [2], 0.016 µg/mL in test [3], 0.021 µg/mL in [4] and 0.01 µg/mL in [11]. The IC50 was 0.064 µg/mL in test [5]; 0.1 µg/mL in [6]; 0.048 µg/mL in test [7]; 0.048 µg/mL in test [8]; 0.069 µg/mL in test [9]; > 3 µg/mL in [10].

B2: 35.13 (antibody, V domains shown)
VH: QVQLQQSGAELGKPGASVKLSCRASGYTFTRYYIYWVKQRPGQGLEWIGEINPSNGDTHFNEKFKTKATLTVDKSSSSAHIHLTSLTSEDSAVYYCSIHAYSFDFWGQGTTLTVSS
VL: EIQMTQSPSSMSASLGDRITITCQATQDIVKNLNWYQQKPGKPPSFLIYHATELAKGVPSRFSGSGSGSDYSLTISNLESEDFADYYCLQFYDFPFTFGAGTKLELKR
Turning to B2, the EC50 worked out at 0.007 µg/mL in [12]; 0.011 µg/mL in test [13]; 0.119 µg/mL in [14]; 0.012 µg/mL in test [15]; 0.01 µg/mL in test [16]; 0.05 µg/mL in test [17]. Further, the EC50 in [18] is 0.011 µg/mL; in test [19], 0.038 µg/mL; in [20] it was 0.048 µg/mL. In addition, in test [21], the dissociation constant Kd is < 1 pM. Also, the dissociation rate constant (koff) in test [21] is < 1e-07 s⁻¹. Moreover, in test [21], the kon came out at 26900 M⁻¹ s⁻¹. Further, the IC50 in test [5] was found to be 0.074 µg/mL; in test [6], 0.142 µg/mL; in test [7], 0.922 µg/mL; in test [8], 0.07 µg/mL; in test [9], 0.098 µg/mL; in test [10], 0.102 µg/mL.

B3: 322.3 (antibody, V domains shown)
VH: RVQLQQSGPELVKPGASVTISCKASGYIFTSDYIHWVKQRPGQGPEWIGWIYPGNINTKYNEKFKGKATLTADKSSSTAYMQLSSLTSEDSAVYFCARDDGNLYYYAMDYWGQGTSVTVSS
VL: NIVLTQSPASLAVSLGQRATISCRASESVDSYGSSFMHWYQQKPGQPPKLLIYLASNLESGVPARFSGSGSRTDFTLTIDPVEADDAATYYCQQNNEDPRTFGGGTKLEIK
In the case of B3, the EC50 in [22] came out at 0.054 µg/mL; in test [19], 0.197 µg/mL; in test [3], 0.082 µg/mL; in test [20], 0.144 µg/mL; in test [4] it was 0.117 µg/mL; in test [23] it was 0.085 µg/mL. The EC50 came to 0.084 µg/mL in test [24], 0.084 µg/mL in [25], 0.082 µg/mL in test [26] and 0.144 µg/mL in test [27]. The Kd in test [21] was determined as 1.63 pM.

By Kd is commonly meant the constant that tells how readily two partners part at equilibrium. What is called koff is the rate constant with which the complex falls apart. As usually defined, the kon is a measure of how fast the partners come together. For orientation: EC50 means the concentration giving half of the maximal effect. The IC50 is the concentration that gives 50% inhibition.
